From PMC4176181, “Multifaceted role of the Topo IIIα–RMI1-RMI2 complex and DNA2 in the BLM-dependent pathway of DNA break end resection”

T1: RMI1-RMI2 (Homo sapiens, UniProt Q9H9A7;Q96E14 1-625;1-147)
T1 sequence 1: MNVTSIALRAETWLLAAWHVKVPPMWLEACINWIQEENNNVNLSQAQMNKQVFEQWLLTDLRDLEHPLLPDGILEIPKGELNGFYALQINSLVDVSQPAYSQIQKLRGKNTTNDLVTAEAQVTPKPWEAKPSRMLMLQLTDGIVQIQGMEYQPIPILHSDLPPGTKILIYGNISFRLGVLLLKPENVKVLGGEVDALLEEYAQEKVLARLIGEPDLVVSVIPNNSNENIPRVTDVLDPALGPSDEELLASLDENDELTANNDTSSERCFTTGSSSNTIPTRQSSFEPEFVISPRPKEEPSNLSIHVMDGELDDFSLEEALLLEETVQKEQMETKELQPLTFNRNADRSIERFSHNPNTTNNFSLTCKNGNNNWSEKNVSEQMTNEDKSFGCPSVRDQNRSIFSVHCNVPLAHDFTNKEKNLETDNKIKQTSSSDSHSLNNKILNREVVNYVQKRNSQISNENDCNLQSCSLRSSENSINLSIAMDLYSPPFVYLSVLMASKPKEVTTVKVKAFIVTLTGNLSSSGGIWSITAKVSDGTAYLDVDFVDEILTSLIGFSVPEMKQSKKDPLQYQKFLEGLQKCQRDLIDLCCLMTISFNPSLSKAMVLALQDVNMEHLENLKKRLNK
T1 sequence 2: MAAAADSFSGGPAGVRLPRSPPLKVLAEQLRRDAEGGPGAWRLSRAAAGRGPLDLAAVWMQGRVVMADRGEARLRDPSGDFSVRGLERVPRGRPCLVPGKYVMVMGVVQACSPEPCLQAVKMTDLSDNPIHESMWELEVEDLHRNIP

T2: Topo IIIα (Homo sapiens, UniProt Q13472 1-1001)
T2 sequence: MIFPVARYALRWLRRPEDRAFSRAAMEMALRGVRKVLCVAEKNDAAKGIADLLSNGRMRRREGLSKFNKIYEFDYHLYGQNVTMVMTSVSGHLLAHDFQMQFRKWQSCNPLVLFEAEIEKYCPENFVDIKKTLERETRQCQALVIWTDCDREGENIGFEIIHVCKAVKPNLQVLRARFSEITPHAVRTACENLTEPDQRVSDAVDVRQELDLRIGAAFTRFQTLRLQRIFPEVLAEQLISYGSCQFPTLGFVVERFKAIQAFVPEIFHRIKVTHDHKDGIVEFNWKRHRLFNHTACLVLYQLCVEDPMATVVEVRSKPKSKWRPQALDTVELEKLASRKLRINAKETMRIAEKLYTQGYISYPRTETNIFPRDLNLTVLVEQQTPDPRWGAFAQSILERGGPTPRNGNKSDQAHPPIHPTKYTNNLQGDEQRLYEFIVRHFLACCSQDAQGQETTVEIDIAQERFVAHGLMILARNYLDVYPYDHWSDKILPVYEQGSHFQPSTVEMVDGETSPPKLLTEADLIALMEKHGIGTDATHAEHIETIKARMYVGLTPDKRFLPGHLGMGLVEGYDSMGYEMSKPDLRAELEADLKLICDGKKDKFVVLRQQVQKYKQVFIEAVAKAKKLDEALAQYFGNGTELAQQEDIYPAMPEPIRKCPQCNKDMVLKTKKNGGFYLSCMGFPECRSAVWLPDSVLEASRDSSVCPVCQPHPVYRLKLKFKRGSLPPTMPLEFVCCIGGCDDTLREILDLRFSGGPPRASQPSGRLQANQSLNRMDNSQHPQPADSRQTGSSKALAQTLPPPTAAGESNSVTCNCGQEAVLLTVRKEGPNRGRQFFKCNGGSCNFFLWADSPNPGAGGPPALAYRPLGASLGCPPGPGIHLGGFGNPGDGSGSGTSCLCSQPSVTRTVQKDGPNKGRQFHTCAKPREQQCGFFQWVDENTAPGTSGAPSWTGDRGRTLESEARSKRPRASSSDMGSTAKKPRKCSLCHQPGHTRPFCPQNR

B1: 80-mer dsDNA (dsDNA)
DNA 1: TTGATAAGAGGTCATTTGAATTCATGGCTTAGAGCTTAATTGCTGAATCTGGTGCTGGGATCCAACATGTTTTAAATATG
DNA 2: CATATTTAAAACATGTTGGATCCCAGCACCAGATTCAGCAATTAAGCTCTAAGCCATGAATTCAAATGACCTCTTATCAA
B2: 80-mer dsDNA, one end blocked by biotin-streptavidin (dsDNA)
DNA 1: B1 DNA 1
DNA 2: B1 DNA 2
modifications: 5' biotin on one strand (PSOL7475 or PSOL6214; which one not stated), streptavidin bound

Legend:
BLM;DNA2-D277A = BLM;DNA2-D277A (Homo sapiens;Homo sapiens, UniProt P54132;P51530 1-1417;1-1060, |D277A); assay: EMSA; 7.5-15 nM BLM with 10 or 20 nM DNA2-D277A; binding enhanced over BLM alone; no ATP, no Mg2+; EMSA: 35 mM Tris-HCl pH 7.5, 1 mM DTT, 100 ng/μl BSA, 2 mM MgCl2, 100 mM NaCl, 25°C, 20 min, 5 nM DNA ends (Mg2+ and ATP omitted in Figure 3B); settings: protein: recombinant;recombinant; copies: 1;1; label: 32P; blunt
Chain of BLM;DNA2-D277A (P54132 whole entry, chain 1 of 2): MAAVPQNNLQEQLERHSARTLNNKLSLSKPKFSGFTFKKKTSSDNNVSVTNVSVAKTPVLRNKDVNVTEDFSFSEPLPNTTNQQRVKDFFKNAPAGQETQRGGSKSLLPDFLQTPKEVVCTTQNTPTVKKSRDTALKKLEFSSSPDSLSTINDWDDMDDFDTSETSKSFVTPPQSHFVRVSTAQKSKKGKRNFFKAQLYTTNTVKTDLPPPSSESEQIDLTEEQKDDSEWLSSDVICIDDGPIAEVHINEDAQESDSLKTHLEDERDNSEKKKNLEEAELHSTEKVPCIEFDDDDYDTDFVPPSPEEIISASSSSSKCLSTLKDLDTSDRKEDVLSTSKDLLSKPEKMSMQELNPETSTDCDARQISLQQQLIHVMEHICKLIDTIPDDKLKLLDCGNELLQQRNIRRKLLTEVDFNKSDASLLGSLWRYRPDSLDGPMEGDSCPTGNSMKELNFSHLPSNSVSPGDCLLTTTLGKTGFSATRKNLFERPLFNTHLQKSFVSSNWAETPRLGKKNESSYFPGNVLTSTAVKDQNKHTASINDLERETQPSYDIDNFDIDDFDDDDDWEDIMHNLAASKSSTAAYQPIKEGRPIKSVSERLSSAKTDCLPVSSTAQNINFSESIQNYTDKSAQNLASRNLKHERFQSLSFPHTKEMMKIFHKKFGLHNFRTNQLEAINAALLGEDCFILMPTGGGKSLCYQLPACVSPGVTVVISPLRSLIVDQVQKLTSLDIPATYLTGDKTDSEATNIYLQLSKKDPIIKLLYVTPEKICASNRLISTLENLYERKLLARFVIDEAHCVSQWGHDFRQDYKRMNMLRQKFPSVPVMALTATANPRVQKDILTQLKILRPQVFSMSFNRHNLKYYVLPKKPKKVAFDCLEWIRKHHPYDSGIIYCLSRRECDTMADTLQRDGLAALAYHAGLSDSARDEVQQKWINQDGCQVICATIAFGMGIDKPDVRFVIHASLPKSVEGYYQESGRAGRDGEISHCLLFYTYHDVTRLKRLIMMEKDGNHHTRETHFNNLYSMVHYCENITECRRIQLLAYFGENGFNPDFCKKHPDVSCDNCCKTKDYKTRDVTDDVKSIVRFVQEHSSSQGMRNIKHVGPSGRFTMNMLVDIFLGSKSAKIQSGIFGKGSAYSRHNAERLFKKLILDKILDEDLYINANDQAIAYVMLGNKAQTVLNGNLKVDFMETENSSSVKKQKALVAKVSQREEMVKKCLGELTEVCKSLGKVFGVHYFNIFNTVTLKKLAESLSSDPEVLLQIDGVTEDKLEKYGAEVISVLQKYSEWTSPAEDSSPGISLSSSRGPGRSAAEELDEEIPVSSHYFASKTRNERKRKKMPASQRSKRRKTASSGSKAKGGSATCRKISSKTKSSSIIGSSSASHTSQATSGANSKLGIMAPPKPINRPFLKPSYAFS
Chain of BLM;DNA2-D277A (P51530 whole entry D277A, chain 2 of 2): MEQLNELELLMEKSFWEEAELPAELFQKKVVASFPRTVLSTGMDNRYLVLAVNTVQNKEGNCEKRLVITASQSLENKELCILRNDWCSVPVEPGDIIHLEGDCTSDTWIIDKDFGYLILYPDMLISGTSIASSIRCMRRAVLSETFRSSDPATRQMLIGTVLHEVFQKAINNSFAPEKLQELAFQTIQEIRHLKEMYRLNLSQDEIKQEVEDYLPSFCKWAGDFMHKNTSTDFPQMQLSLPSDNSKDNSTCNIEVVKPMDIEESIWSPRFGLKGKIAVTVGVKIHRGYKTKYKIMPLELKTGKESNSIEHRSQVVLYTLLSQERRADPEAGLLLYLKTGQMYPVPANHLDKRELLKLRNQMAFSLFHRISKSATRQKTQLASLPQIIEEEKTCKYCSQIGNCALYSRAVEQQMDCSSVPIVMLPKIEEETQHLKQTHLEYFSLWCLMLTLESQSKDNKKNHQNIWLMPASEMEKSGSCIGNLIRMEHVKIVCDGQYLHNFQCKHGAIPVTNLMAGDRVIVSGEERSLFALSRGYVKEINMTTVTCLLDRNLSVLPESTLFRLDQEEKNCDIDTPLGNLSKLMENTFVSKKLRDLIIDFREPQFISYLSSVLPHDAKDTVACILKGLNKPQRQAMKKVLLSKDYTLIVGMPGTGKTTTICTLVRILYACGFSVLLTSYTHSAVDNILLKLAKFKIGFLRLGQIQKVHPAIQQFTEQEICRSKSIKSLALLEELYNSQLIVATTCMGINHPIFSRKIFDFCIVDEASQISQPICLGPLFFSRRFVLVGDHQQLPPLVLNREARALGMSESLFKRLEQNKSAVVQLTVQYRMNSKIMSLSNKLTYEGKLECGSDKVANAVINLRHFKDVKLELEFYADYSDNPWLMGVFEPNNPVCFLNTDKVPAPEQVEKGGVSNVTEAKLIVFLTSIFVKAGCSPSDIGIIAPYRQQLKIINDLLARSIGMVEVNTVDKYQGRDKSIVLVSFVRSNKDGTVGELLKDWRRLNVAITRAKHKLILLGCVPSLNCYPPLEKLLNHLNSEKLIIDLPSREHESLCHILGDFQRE

RMI1-RMI2 = target: T1, RMI1-RMI2; assay: EMSA; 25-100 nM protein; EMSA: 35 mM Tris-HCl pH 7.5, 1 mM DTT, 100 ng/μl BSA, 2 mM MgCl2, 100 mM NaCl, 25°C, 20 min, 5 nM DNA ends (Mg2+ and ATP omitted in Figure 3B); settings: protein: recombinant; copies: 1;1; label: 32P; blunt
Topo IIIα [1] = target: T2, Topo IIIα; assay: EMSA; 25-100 nM protein; two discrete complexes; EMSA: 35 mM Tris-HCl pH 7.5, 1 mM DTT, 100 ng/μl BSA, 2 mM MgCl2, 100 mM NaCl, 25°C, 20 min, 5 nM DNA ends (Mg2+ and ATP omitted in Figure 3B); settings: protein: recombinant; label: 32P; blunt
Topo IIIα [2] = target: T2, Topo IIIα; assay: EMSA; 25-100 nM protein; streptavidin on one end; shifted efficiently; EMSA: 35 mM Tris-HCl pH 7.5, 1 mM DTT, 100 ng/μl BSA, 2 mM MgCl2, 100 mM NaCl, 25°C, 20 min, 5 nM DNA ends (Mg2+ and ATP omitted in Figure 3B); settings: protein: recombinant; label: 32P; blunt

Binder	binding result (BLM;DNA2-D277A)	binding result (RMI1-RMI2)	binding result (Topo IIIα [1])	binding result (Topo IIIα [2])
B1	binds	no binding	binds	–
B2	–	–	–	binds
